Results: the supplement of paper PMC9170038

Key:
[1] = tested on: MS2 coat protein; experiment: apparent KD of MS2 coat protein; designed switch direction (-1 OFF switch, 1 ON switch): 1; higher = weaker reporter binding
Method in brief: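 The buffer was Tris-HCl pH 7.5 with KCl, MgCl2, BSA, DTT, tRNA and Tween-20. In it, SNAP-549-labelled MS2 coat protein was titrated in doubling steps from 0.7 or 1.5 nM to 3 µM over chip-bound RNA switches transcribed by stalled E. coli RNA polymerase on Illumina chips. Apparent KD is the per-design median over clusters of curve fits to normalised fluorescence.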

[2] = tested on: MS2 coat protein; experiment: apparent KD of MS2 coat protein; higher = weaker reporter binding; conditions: Eterna round: R107
Method in brief: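 Apparent KD stands for the median, per design, of fits to normalised cluster binding curves. The curves came from titrating on-chip-transcribed RNA switches on Illumina sequencing clusters with SNAP-549-labelled MS2 coat protein, twofold from 0.7 or 1.5 nM to 3 µM. Buffer was 100 mM Tris-HCl pH 7.5, 80 mM KCl, 4 mM MgCl2, without or with constant ligand.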

[3] = input ligand: microRNA oligo, concentration not stated
[4] = input ligand: theophylline 20 uM
[5] = input ligand: theophylline 2 mM
[6] = input ligand: tryptophan 2.4 mM

Sequence | apparent KD of MS2 coat protein [1, 3] | apparent KD of MS2 coat protein ([1]; input ligand: FMN 200 uM) | apparent KD of MS2 coat protein ([1]; input ligand: none) | apparent KD of MS2 coat protein ([1]; Eterna round: R95, input ligand: FMN 200 uM) | apparent KD of MS2 coat protein ([1]; Eterna round: R95, input ligand: microRNA oligo, concentration not stated) | apparent KD of MS2 coat protein ([1]; Eterna round: R95, input ligand: none) | apparent KD of MS2 coat protein ([2]; input ligand: arginine 13.2 mM) | apparent KD of MS2 coat protein ([2]; input ligand: none) | apparent KD of MS2 coat protein [2, 4] | apparent KD of MS2 coat protein [2, 5] | apparent KD of MS2 coat protein [2, 6]
AAAAAACAUGAGGAUCACCCAUGUAAAAAAAUGGGAGGAUAUCUGAAUUAAUUAAAUUAAGGAGAAGGCCUAAAAA [71%, Same state of confusion2, 4] (Eterna round: R96, puzzle: Same State 1) | 192 nM | – | – | – | – | – | – | – | – | – | –
AAAAGAAACACAGGAUAUACCGCGCUUAACGCGGUAGAAGGGUGGGACAUGAGGAUCACCCAUGUGGCCUGAGCGCCAGGCCGC [Uszadi] (Eterna round: R96, puzzle: Same State NG 1) | 14.1 nM | 428 nM | 299 nM | – | – | – | – | – | – | – | –
AAAAUGCGGGAAGGAUAUGGGAAAGGAAGUGUACCAGAAGGUCUCGCGGCCAAGGACAUGAGGAUCACCCAUGUUAACGCCCGA [PowerStrip SSNG 1.8] (Eterna round: R96, puzzle: Same State NG 1) | 43.4 nM | 204 nM | 40.8 nM | – | – | – | – | – | – | – | –
AAAAUUUCUGCACAGGAUAUGUAGUGUUUCACAUGAGGAUCACCCAUGUCAAAACCAGAGACUGUACAGAAGGGUGCGGUCGGAC [Onedxequ] (puzzle: Same State 2) | – | – | – | 15.8 nM | 10.3 nM | 14.6 nM | – | – | – | – | –
AAACGACACACAGGAUAUCCGCCAUGCAGGCUCGGAGAAGGGUGUGAAACAUGAGGAUCACCCAUGUAGUCAAAAUAAUAAAGA [Arardixequ] (Eterna round: R96, puzzle: Same State NG 1) | 62.9 nM | 47 nM | 58.9 nM | – | – | – | – | – | – | – | –
UGUAACAUGAGGAUCACCCAUGUGAGUGAUACCAGACUAGUGUUAGUCCCUUGGCAGCACGCUGGACGAAUGUGUAGUCUAUGCG [Same State - Theophylline A (Freestyle 19)] | – | – | – | – | – | – | 55.8 nM | 78 nM | 108 nM | 58.3 nM | 63.9 nM
UGUACCAUGUCGGCCGCCACUCAUGAUAAACAAGAGGAUCACCCUUGUAGCGUCAAAGACGCUAUGAGGACCGGGACAUGGUACU [TryBS Zipper 2] | – | – | – | – | – | – | 29.5 nM | 29.7 nM | 41.2 nM | 43.9 nM | 15.5 nM
UGUACCUGUAUCUGGUCCAUAGUAUAACCUCGAGGACCGGUACGGCCGCCACUCGUCGGACCACAUGAGGAUCACCCAUGUACCG [theeternabot_exclusion_MS2_Trp_A_23] | – | – | – | – | – | – | 12.9 nM | – | 17.8 nM | 14.1 nM | –
UGUAUGGACUGAAGGAGCGCCUCAAAAUAUCAUGAGGAUCACCCAUGGAAGGCGAAAGCCGGGCAGGUAGGUCGCAGUCCAUACU [ArgBX 3] | – | – | – | – | – | – | 20.2 nM | 15.6 nM | 19.1 nM | 15.6 nM | 13.4 nM
UGUAUGGACUGAAGGAGCGCCUCAAACAUGAGGAUCACCCAUGUGGACAAAUAAGUCCUUGGGCAGGUAGGUCGCAGUCCAUACU [ArgBX 7 #StaticStem #MS2Late] | – | – | – | – | – | – | 73.5 nM | 82.8 nM | 91.2 nM | 90.6 nM | 66.1 nM
UGUAUGGACUGAAGGAGCGGAAAAUAAACCUGAGGAUCACCCGGGUAAUAGGCGAAAGCCAUCCAGGUAGGUCGCAGUCCAUACU | – | – | – | – | – | – | 156 nM | – | 233 nM | 385 nM | 291 nM
UGUAUGGACUGAAGGAGCGGGUAAAUAACCUGAGGAUCACCCAGGUAAAAGGCGAAAGCCACCCAGGUAGGUCGCAGUCCAUACU | – | – | – | – | – | – | 10.6 nM | – | 13.7 nM | 12.7 nM | 11 nM
UGUAUGUGAUCUGAUACCAGAGUGAAUAAACCUGAGGAUCACCCUGGUAGGCGAAAGCCACUCCCUUGGCAGCAGAUCGCAUACU | – | – | – | – | – | – | 102 nM | 139 nM | 112 nM | 38.6 nM | 141 nM
UGUAUGUGAUCUGAUACCAGAGUUGAUAAUCUGAGGAUCACCCUGGUAAGGCGAAAGCCACUCCCUUGGCAGCAGAUCGCAUACU | – | – | – | – | – | – | 106 nM | 306 nM | 874 nM | 175 nM | 725 nM
UGUAUGUGAUCUGAUACCAGCCUCAUAACUUGAGGAUCACCCAAGUGGAGCGGAAACGCUGGCCCUUGGCAGCAGAUCGCAUACU [TheoBS 2 #AlternativeMS2] | – | – | – | – | – | – | 205 nM | 460 nM | 200 nM | 15.3 nM | 556 nM
UGUAUGUGAUCUGAUACCAGUCCAACUGGUAAAACUUGAGGAUCACCCAGGUAAAAUUGGGACCCUUGGCAGCAGAUCGCAUACU | – | – | – | – | – | – | 150 nM | 316 nM | 597 nM | 129 nM | 705 nM
UGUCAGCGAAAGUUGACAUGUCUUGCUGGUCGAGGACCGGUACGGCCGCCACUCGAUCUCUCGCACAUGAGGAUCACCCAUGUUG [SS Tryp A #23] | – | – | – | – | – | – | 13.9 nM | – | 14.4 nM | 13.9 nM | –

Sequence | apparent KD of MS2 coat protein [1, 3] | apparent KD of MS2 coat protein ([1]; input ligand: FMN 200 uM) | apparent KD of MS2 coat protein ([1]; input ligand: none) | apparent KD of MS2 coat protein ([1]; Eterna round: R95, input ligand: FMN 200 uM) | apparent KD of MS2 coat protein ([1]; Eterna round: R95, input ligand: microRNA oligo, concentration not stated) | apparent KD of MS2 coat protein ([1]; Eterna round: R95, input ligand: none) | apparent KD of MS2 coat protein ([2]; input ligand: arginine 13.2 mM) | apparent KD of MS2 coat protein ([2]; input ligand: none) | apparent KD of MS2 coat protein [2, 4] | apparent KD of MS2 coat protein [2, 5] | apparent KD of MS2 coat protein [2, 6]
UGUGUGUGACCAGGAAAUGGUCACACACAGCGAGGACCGGUACGGCCGCCACUCGGCCGUACAUGAGGAUCACCCAUGUCGGGUA [#1 Same State - Tryptophan A Attempt #9 (HarryS)] | – | – | – | – | – | – | 99.6 nM | – | 961 nM | 1290 nM | –
UGUUUGGUGCGCGAGUGUUGGAUAAUUGAUACCAGUGAAGAAGAGCGCCCUUGGCAGCGAAUCCUAACAUGAGGAUCACCCAUGU [5.U] | – | – | – | – | – | – | 41.5 nM | 39.7 nM | 84.8 nM | 51.7 nM | 39 nM
UUAAGAGGCUAUCCACUUUGAUUUUGUGAUACCAGAAUAAUUUUAUUCCCUUGGCAGCAUGACAUGAGGAUCACCCAUGUGUCUU [SSTheo A #3] | – | – | – | – | – | – | 31.4 nM | – | 46.5 nM | – | 36.9 nM
UUAAUCUAUGAAGAAAACUUUAUAGCAGAAGGAGCGUGAUAAAACACAGGUAGGUCGCUGAAGGGAACAUGAGGAUCACCCAUGU [AstrosSSArgA#19] | – | – | – | – | – | – | 23.7 nM | 22.7 nM | 36.7 nM | 31.1 nM | 26.5 nM
UUAAUUAUAUAUUAUUUAAUAUUUACAGAAGGAGCGUGAUAAAACACAGGUAGGUCGCUGAAGGGAACAUGAGGAUCACCCAUGU [AstrosSSArgA#20] | – | – | – | – | – | – | 28.6 nM | 28.9 nM | 41.6 nM | 60.1 nM | 38.9 nM
UUACACAUGAGGAUCACCCAUGUCUGGGAGCGAGGACCGGUACGGCCGCCACUCGAAUUGUCAGGGCUAUGCCGGACGAUGCAUC [theeternabot_sameState_MS2_Trp_A_20] | – | – | – | – | – | – | 20.6 nM | – | 23.5 nM | 25 nM | –
UUAUAAGUACCGGUCCUCAGAUCCUCAUGACGAGGACCGGUACGGCCGCCACUCGAAACAUGAGGAUCACCCAUGUAAUAAUAAC [Brourdmod04] | – | – | – | – | – | – | 23.3 nM | – | 92.1 nM | 37.7 nM | –
UUAUGAUGUUCCGAUACCAGCCAUGUAGUUCUAACUUAACAUGAGGAUCACCCAUGUACCGGCCCUUGGCAGCGGAUGUGGAUUA [#22Same State - Theophylline B] | – | – | – | – | – | – | 27 nM | 23.4 nM | 29.3 nM | 14.8 nM | 23.7 nM
UUAUUUAACGGAAGGAGCGCGGAUAAAAUAGUGGGUAAACAUGAGGAUCACCCAUGUAAACCGCAGGUAGGUCGCCGAUAUUUAU [AstrosEXyARgB#5] | – | – | – | – | – | – | 21.5 nM | 43.1 nM | 48.8 nM | 33.2 nM | 35.9 nM
UUCACAUGGUAUGAAUAUACAUACAAGAAACGAGGACCGGUACGGCCGCCACUCGUGCCGGAAACAUGAGGAUCACCCAUGUGUU [AK1.2 Exclusion TrypA mod IceBolt] | – | – | – | – | – | – | 21.5 nM | – | 41.2 nM | 41.2 nM | –
UUGGGUAUGCGAAGGAGCGGGAAAUAUAUAUAUAUAAUCCUAACAUGAGGAUCACCCAUGUCCCAGGUAGGUCGCGCAUGUUUGG [12.K] | – | – | – | – | – | – | 128 nM | 207 nM | 250 nM | 423 nM | 247 nM
UUGGGUUUGCGAAGGAGCGGGUAUGUUUUCUAGUGGAUCCUAACAUGAGGAUCACCCAUGUCCCAGGUAGGUCGCGCGGGUUUGG [12.V] | – | – | – | – | – | – | 89.1 nM | 122 nM | 230 nM | 224 nM | 148 nM
UUGGGUUUGUGAAGGAGCGGGAAAUAUAUAUAUAUAAUCCUAACAUGAGGAUCACCCAUGUCCCAGGUAGGUCGCGCGGGUUUGG [12.N] | – | – | – | – | – | – | 46.4 nM | 60.2 nM | 63.5 nM | 65.5 nM | 51.6 nM
UUUACAUGAGGAUCACCCAUGUGCCAUGAUACCAGACAUGAAAAUGUCCCUUGGCAGCAUGAGUGAUGCAUCCGAAAGGAUGUUU [Ivanovice] | – | – | – | – | – | – | 97.2 nM | – | 197 nM | – | 52.4 nM
UUUGAUAGAACAGAUACCAGCGUGUUAUAAAACAUGAGGAUCACCCAUGUAGUGAUCAAGCGCCCUUGGCAGCUGGUUUGUUAGG [7.I] | – | – | – | – | – | – | 76.4 nM | – | 122 nM | – | 161 nM
UUUGGCGGCGAUCUGGGUUUCCCAGAUCGGCGAGGACCGGUACGGCCGCCACUCGUGUUUCUUUGACAUGAGGAUCACCCAUGUA [whbob_SS_trypto A_f4] | – | – | – | – | – | – | 51.5 nM | 62.7 nM | 82.7 nM | 93.9 nM | 42.8 nM
UUUGUAAUUGUCUGGUAGAUUUAUUUAUUUCGAGGACCGGUACGGCCGCCACUCGUUAAUUACAUGAGGAUCACCCAUGUUAGCU [JR_ExcTryptoA_Sub008] | – | – | – | – | – | – | 14.1 nM | – | 17.1 nM | 15 nM | –
